# From the supplement of paper PMC7877785
# ± gives the uncertainty stated by the source.
# Test: self-splicing fitness, log relative to wild type (ln ratio); higher = more splicing; Tetrahymena group I intron in knt gene, E. coli kanamycin selection, DiMSum; sequences stand for … in CUCUCU…GGAGGGAAAAGUUAUCAGGCAUGCACCUGGUAGCUAGUCUUUAAACCAAUAGAUUGCAUCGGUUUAAAAGGCAAGACCGUCAAAUUGCGGGAAAGGGGUCAACAGCCGUUCAGUACCAAGUCUCAGGGGAAACUUUGAGAUGGCCUUGCAAAGGGUAUGGUAAUAAGCUGACGGACAUGGUCCUAACCACGCAGCCAAGUCCUAAGUCAACAGAUCUUCUGUUGAUAUGGAUGCAGUUCACAGACUAAAUGUCGGUCGGGGAAGAUGUAUUCUUCUCAUAAGAUAUAGUCGGACCUCUCCUUAAUGGGAGCUAGCGGAUGAAGUGAUGCAACACUGGAGCCGCUGGGAACUAAUUUGUAUGCGAAAGUAUAUUGAUUAGUUUUGGAGUACUCGUGGUCG
# In short: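 Six replicate transformations of E. coli BL21(DE3) with a pET-22b(+) library were grown overnight at 37°C or 30°C. The library randomised all eight P1ex-region intron nucleotides, the intron lying in the knt kanamycin-resistance gene, and plates were LB agar with or without 25 μg/mL kanamycin plus 100 μg/mL carbenicillin, 50 μM IPTG and 0.2% rhamnose. Pooled colonies were amplicon-sequenced on an Illumina HiSeq 2500, and fitness is the DiMSum error-weighted combination of wild-type-normalised replicate fold changes, kanamycin versus none.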
Sequence,self-splicing fitness (ln) (30 °C),self-splicing fitness (ln) (37 °C)
CGCUAGCAAUAUUACGAAGG,-1.06 ± 0.098,-0.735 ± 0.13
CGCUAGCAAUAUUACGAAUC,-3.64 ± 0.21,-0.947 ± 0.15
CGCUAGCAAUAUUACGACUA,-2.81 ± 0.16,-2.52 ± 0.23
CGCUAGCAAUAUUACGACUG,-0.448 ± 0.05,0.456 ± 0.068
CGCUAGCAAUAUUACGAUCC,-2.01 ± 0.37,-1.74 ± 0.42
CGCUAGCAAUAUUACGCACG,-2.53 ± 0.17,-2.06 ± 0.24
CGCUAGCAAUAUUACGCAGG,-3.17 ± 0.18,-1.83 ± 0.23
CGCUAGCAAUAUUACGCAUA,-3.26 ± 0.21,-2.36 ± 0.21
CGCUAGCAAUAUUACGCCAC,-3.86 ± 0.43,-1.09 ± 0.26
CGCUAGCAAUAUUACGCCGC,-2.55 ± 0.18,
CGCUAGCAAUAUUACGGAGU,-3.65 ± 0.27,-2.42 ± 0.25
CGCUAGCAAUAUUACGGGGA,-2.93 ± 0.32,-1.95 ± 0.32
CGCUAGCAAUAUUACGGGUA,-0.542 ± 0.11,-0.011 ± 0.12
CGCUAGCAAUAUUACGGGUG,-3.31 ± 0.12,-2.83 ± 0.13
CGCUAGCAAUAUUACGGUGU,-3.54 ± 0.15,-2.22 ± 0.21
CGCUAGCAAUAUUACGUAAC,-4.07 ± 0.31,-2.87 ± 0.38
CGCUAGCAAUAUUACGUAGG,-1.4 ± 0.058,-0.925 ± 0.081
CGCUAGCAAUAUUACGUCUC,-2.62 ± 0.48,-1.46 ± 0.23
CGCUAGCAAUAUUACGUCUG,-0.182 ± 0.078,0.774 ± 0.089
CGCUAGCAAUAUUACGUGAA,-3.59 ± 0.16,-2.34 ± 0.087
CGCUAGCAAUAUUACGUUCU,-2.16 ± 0.11,-1.67 ± 0.12
CGCUAGCAAUAUUACGUUUA,-3.37 ± 0.23,-2.56 ± 0.18
CGCUAGCAAUAUUACGUUUU,-3.8 ± 0.16,-1.68 ± 0.13
CGGAAGCAAUAUUACGAACC,,-1.43 ± 0.41

Sequence,self-splicing fitness (ln) (30 °C),self-splicing fitness (ln) (37 °C)
CGGAAGCAAUAUUACGAAGA,-3.45 ± 0.4,-3.08 ± 0.47
CGGAAGCAAUAUUACGAAUG,-0.506 ± 0.079,-0.137 ± 0.12
CGGAAGCAAUAUUACGACUA,-0.269 ± 0.1,0.239 ± 0.1
CGGAAGCAAUAUUACGAGAA,-2.88 ± 0.48,-2.03 ± 0.24
CGGAAGCAAUAUUACGAGUU,-3.29 ± 0.2,-2.49 ± 0.2
CGGAAGCAAUAUUACGAUCG,-1.86 ± 0.1,-1.07 ± 0.14
CGGAAGCAAUAUUACGAUGA,-1.91 ± 0.11,-0.379 ± 0.096
CGGAAGCAAUAUUACGCAGA,-1.98 ± 0.33,-2.01 ± 0.3
CGGAAGCAAUAUUACGCAGC,-3.56 ± 0.37,-1.49 ± 0.27
CGGAAGCAAUAUUACGCAGU,-2.73 ± 0.14,-2.25 ± 0.21
CGGAAGCAAUAUUACGCCGG,-0.726 ± 0.15,0.698 ± 0.19
CGGAAGCAAUAUUACGCUAC,-2.38 ± 0.24,-3.01 ± 0.47
CGGAAGCAAUAUUACGCUAG,-1.05 ± 0.091,-1.6 ± 0.19
CGGAAGCAAUAUUACGCUGG,-1.62 ± 0.11,-1.15 ± 0.17
CGGAAGCAAUAUUACGGAAG,,-1.5 ± 0.33
CGGAAGCAAUAUUACGGAAU,-2.11 ± 0.16,-1.08 ± 0.19
CGGAAGCAAUAUUACGGAUC,-3.97 ± 0.37,-2.04 ± 0.27
CGGAAGCAAUAUUACGGCAC,-2.4 ± 0.25,-1.75 ± 0.38
CGGAAGCAAUAUUACGGCCA,0.0398 ± 0.097,0.672 ± 0.16
CGGAAGCAAUAUUACGGUCC,-3.37 ± 0.27,-0.831 ± 0.13
CGGAAGCAAUAUUACGUGAU,-3.44 ± 0.12,-1.96 ± 0.12
CGGAAGCAAUAUUACGUGUU,-3.75 ± 0.17,-2.43 ± 0.17
CGGAAGCAAUAUUACGUUGA,-3.33 ± 0.16,-2.65 ± 0.15
